This passage reports percent decrease of tau in the pelleted microtubule fraction relative to unmodified hT39 results from PMC11927755.

The assay deals with preformed microtubules (polymerized tubulin, paclitaxel-stabilised) (UniProt P02550). Briefly: co-sedimentation; microtubule spin-down: 1 μM tau with paclitaxel-stabilised preformed microtubules in general tubulin buffer (80 mM PIPES pH 7.0, 1 mM MgCl2, 1 mM EGTA), 30 min at RT, through a sucrose cushion at 100,000 RCF for 40 min, pellet washed twice; tau (Tau5) and tubulin (5H1) in supernatant and pellet by Western blot; % tau in pellet.
UniProt P02550, sequence (P02550 whole entry, looked up): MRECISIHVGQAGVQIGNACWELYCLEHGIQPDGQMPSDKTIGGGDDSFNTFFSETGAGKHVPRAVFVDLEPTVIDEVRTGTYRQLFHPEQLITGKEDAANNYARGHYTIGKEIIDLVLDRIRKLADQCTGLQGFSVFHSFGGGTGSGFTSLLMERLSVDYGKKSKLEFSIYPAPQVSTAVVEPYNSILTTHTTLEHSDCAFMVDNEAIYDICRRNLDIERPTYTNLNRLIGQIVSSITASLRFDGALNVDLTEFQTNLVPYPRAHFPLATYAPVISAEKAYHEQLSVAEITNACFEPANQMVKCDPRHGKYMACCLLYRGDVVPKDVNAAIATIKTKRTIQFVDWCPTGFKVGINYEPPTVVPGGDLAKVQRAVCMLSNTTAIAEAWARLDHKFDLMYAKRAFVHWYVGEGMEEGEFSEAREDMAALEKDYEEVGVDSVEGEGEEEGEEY

“O-GlcNAc modified hT39 (Glc hT39, 2N3R tau) (from UniProt P10636-5 1-410) (natural protein)” yielded a percent decrease of tau in the pelleted microtubule fraction relative to unmodified hT39 of 45%.
